T1: soluble αvβ6 (UniProt P06756 31-992; P18564 22-709, Biotinylated in the blocking ELISA of FIG. 7; the biotin sites are not stated.)
T1 alpha: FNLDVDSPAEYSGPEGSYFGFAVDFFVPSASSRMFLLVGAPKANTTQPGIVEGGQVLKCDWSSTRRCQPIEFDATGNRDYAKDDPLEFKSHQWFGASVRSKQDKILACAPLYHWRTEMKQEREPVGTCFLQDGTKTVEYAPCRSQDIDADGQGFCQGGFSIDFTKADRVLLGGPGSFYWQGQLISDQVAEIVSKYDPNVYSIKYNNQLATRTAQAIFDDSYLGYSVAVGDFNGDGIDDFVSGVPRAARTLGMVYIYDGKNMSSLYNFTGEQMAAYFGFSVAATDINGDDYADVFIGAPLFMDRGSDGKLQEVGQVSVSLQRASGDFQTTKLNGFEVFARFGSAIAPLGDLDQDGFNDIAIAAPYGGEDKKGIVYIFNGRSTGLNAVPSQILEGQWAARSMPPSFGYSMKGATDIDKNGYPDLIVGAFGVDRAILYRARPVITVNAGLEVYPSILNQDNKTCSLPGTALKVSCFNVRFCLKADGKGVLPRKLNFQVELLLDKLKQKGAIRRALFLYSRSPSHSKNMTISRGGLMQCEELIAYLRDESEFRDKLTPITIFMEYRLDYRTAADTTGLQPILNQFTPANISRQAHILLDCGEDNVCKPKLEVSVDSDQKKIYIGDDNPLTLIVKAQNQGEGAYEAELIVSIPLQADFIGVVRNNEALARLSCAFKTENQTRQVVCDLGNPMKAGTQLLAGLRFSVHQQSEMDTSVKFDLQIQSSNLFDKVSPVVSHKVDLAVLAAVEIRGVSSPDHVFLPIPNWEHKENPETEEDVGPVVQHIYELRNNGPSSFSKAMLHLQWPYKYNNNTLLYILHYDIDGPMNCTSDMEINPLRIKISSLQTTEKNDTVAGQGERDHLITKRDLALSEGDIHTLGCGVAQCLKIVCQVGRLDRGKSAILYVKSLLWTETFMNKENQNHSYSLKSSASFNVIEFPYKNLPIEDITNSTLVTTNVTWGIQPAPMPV
T1 beta: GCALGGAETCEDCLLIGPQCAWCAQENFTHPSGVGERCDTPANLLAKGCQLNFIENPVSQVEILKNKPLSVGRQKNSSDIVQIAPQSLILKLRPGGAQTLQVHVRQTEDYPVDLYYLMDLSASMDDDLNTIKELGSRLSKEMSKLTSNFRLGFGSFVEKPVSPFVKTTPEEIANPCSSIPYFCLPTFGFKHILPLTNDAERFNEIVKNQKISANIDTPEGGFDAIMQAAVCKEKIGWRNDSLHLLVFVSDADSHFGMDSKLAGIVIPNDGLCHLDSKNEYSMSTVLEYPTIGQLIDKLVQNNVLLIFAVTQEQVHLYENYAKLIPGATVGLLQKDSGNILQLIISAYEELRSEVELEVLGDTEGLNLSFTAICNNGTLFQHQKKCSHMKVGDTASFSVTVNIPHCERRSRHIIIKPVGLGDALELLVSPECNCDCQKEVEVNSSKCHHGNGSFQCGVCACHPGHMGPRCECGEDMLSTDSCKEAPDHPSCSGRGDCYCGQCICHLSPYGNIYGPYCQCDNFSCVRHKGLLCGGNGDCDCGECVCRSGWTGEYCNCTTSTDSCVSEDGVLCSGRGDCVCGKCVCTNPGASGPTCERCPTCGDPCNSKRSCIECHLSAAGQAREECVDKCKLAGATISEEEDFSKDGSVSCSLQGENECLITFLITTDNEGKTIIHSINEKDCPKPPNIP


Biological target: T1, soluble αvβ6
Test: binding ELISA

Binder	EC50 [µg/mL]
chimeric 3G9 antibody (ch3G9) (antibody, V domains shown) VH: EVMLVESGGGLVQPGGSLRLSCAASGFTFSRYVMSWVRQAPGKGLEWVASISSGGRMYYPDTVKGRFTISRDSAKNSLYLQMNSLRAEDTAVYYCARGSIYDGYYVFPYWGQGTLVTVSS VL: DIVLTQSPATLSLSPGERATLSCRASQSVSTSSYSYMYWYQQKPGQAPRFLIKYASNLESGIPARFSGSGSGTDFTLTISSLEPEDFAVYYCQHNWEIPFTFGGGTKVEIK	0.036
chimeric 3G9 antibody containing a N to S substitution within the N-linked glycosylation site in the first CDR of the light chain (ch3G9S) (antibody, V domains shown) VH: EVMLVESGGGLVQPGGSLRLSCAASGFTFSRYVMSWVRQAPGKGLEWVASISSGGRMYYPDTVKGRFTISRDSAKNSLYLQMNSLRAEDTAVYYCARGSIYDGYYVFPYWGQGTLVTVSS VL: DIVLTQSPATLSLSPGERATLSCRASQSVSTSSYSYMYWYQQKPGQAPRFLIKYASNLESGIPARFSGSGSGTDFTLTISSLEPEDFAVYYCQHNWEIPFTFGGGTKVEIK	0.043

From US20110305629A1 (published 2011)
